Results taken from paper PMC6697681, “The predominance of nucleotidyl activation in bacterial phosphonate biosynthesis” (Nature Communications, 2019).

Molecular target: the molecule itself
Assay: dynamic light scattering; 20 µl of freshly purified protein (8 mg/ml) at 20 °C, DynaPro NanoStar; self-association (oligomeric state)

B1: Tde1415 (Tde-PntC; two-domain protein with an N-terminal PntC and a C-terminal AEPT domain) from Treponema denticola (enzyme, Treponema denticola ATCC 35405)
chain: MIKQAVILAGGLGSRLKDKTKTMPKGFLEIGGTAIVEQSVQKLLAHGIEKIVIGTGHCNEYYDNLAKKYPAIITVKNENYANTGSMGTLEVCASFVNESFLLLESDLIYDSAGLFSLINDERKNLILASGATKSGDEVYLEADEKNCLTGLSKNRDALKNIFGELVGITKLTKSTLDKMCAYAKIHHSDLPKMEYEHALLEAAKTIPVAIKRIEYFVWREIDNEDHLEMAVKNIYPHIVENEKLRAVRREVLLNPGPATTTDSVKYAQVSADICPREKAFGDLMQWLCDELKLFALASETNPDEYETVMFGCSGTGADEVMVSSCVPDTGRLLVIDNGSYGARMAKIADIYKIPMDIFKSSTYEPLDLQKLEAEFATKKYTHLACVYHETTTGLLNPLHIICPMAKKYGMVTIVDAVSAYCGMPMDLKSLGIDFMASTSNKNIQGMAGVGFVICNKAELEKTKDYPMRNYYLNLYDQYAYFAKTHQTRFTPPVQTMYALRQAVLETKQETVQKRYERYTACWNILVAAIKKLGLKMLVKEEHQSHFITAILEPETPKYSFEALHDFAAEHSFTIYPGKLGNIDTFRIANIGDIQPEEMRRFTVKLKEYMNGIGVGV
notes: Tde1415 (Tde-PntC) from T. denticola ATCC 35405, NCBI NP_992021; N-terminal PntC cytidylyltransferase domain joined to a C-terminal AEP transaminase (AEPT) domain; predicted monomeric molecular weight ~70 kDa; gene subcloned without its stop codon as NdeI/NotI fragment into pET21b (pGH3000); Dimer by DLS; source: E. coli BL21(DE3), purified (Ni-NTA, HiTrap Q FF anion exchange)
- stoichiometry N: 2
